Data as given in publication doi:10.1101/2022.08.30.505852 (bioRxiv, 2022).
Substitutions are numbered along the chain they refer to. Where “and” joins values, the source holds several entries; their conditions need not be identical. Identical values can stand only once.

T1: βCAT_(CTERM), β-catenin residues 666-781 (human, UniProt P35222 666-781)
T1 sequence (looked up): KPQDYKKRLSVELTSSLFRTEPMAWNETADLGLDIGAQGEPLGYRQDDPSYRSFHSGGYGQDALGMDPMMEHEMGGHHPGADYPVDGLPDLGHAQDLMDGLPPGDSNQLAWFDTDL

T2: βCAT_(CTERM) D764A (human, UniProt P35222 666-781, D764A)
T2 sequence (looked up): T1 sequence (looked up) with D99A

T3: βCAT_(CTERM) D751A (human, UniProt P35222 666-781, D751A)
T3 sequence (looked up): T1 sequence (looked up) with D86A

T4: βCAT_(CTERM) F777A (human, UniProt P35222 666-781, F777A)
T4 sequence (looked up): T1 sequence (looked up) with F112A

T5: βCAT_(CTERM) D761A (human, UniProt P35222 666-781, D761A)
T5 sequence (looked up): T1 sequence (looked up) with D96A

B1: βCAT_(TAD2), β-catenin residues 730-781 (domain or fragment, human, UniProt P35222 730-781, looked up)
chain: GMDPMMEHEMGGHHPGADYPVDGLPDLGHAQDLMDGLPPGDSNQLAWFDTDL
B2: βCAT_(750-781), β-catenin residues 750-781 (peptide, UniProt P35222 750-781, looked up)
chain: VDGLPDLGHAQDLMDGLPPGDSNQLAWFDTDL
B3: TAZ2 domain of p300 (residues 1723-1812 with four stabilizing mutations) (domain or fragment, UniProt Q09472 1723-1812, looked up)
chain: ATQSPGDSRRLSIQRAIQSLVHAAQCRNANCSLPSCQKMKRVVQHTKGCKRKTNGGCPICKQLIALAAYHAKHCQENKCPVPFCLNIKQK
B4: TAZ1 domain of CBP (residues 346-440) (domain or fragment)
chain: not shown

What was measured:
Test in all cases: ITC
[1] = target: B4
[2] = target: B1
[3] = target: T1, βCAT_(CTERM), β-catenin residues 666-781
βCAT_(CTERM) D764A = target: T2, βCAT_(CTERM) D764A
βCAT_(CTERM) D751A = target: T3, βCAT_(CTERM) D751A
βCAT_(CTERM) F777A = target: T4, βCAT_(CTERM) F777A
βCAT_(CTERM) D761A = target: T5, βCAT_(CTERM) D761A

Binder: B1
- Kd [1]: 380 ± 20 nM

Binder: B2
- Kd [1]: 2170 ± 70 nM

Binder: B3
- Kd2 (two-site fit) [2]: 1.18 ± 0.43 µM
- Kd2 (two-site fit) [3]: 3.42 ± 0.2 µM

Binder: B4
- Kd (βCAT_(CTERM) D764A): 320 nM and 600 nM
- Kd (βCAT_(CTERM) D751A): 390 nM and 550 nM
- Kd2 (two-site fit) [3]: 0.65 ± 0.22 µM
- Kd (βCAT_(CTERM) F777A): 550 nM and 320 nM
- Kd (βCAT_(CTERM) D761A): 600 nM and 390 nM
